According to US20260069689A1 (Regeneron, published 2026):

How the values were obtained:
[1] = target: T1, SARS-COV-2 RBD extracellular domain expressed with a C-terminal mouse IgG2a Fc (SARS-CoV-2); assay: Biacore SPR, mAb captured on anti-hFc, 25 C
[2] = target: T1, SARS-COV-2 RBD extracellular domain …; assay: Biacore SPR, mAb captured on anti-hFc, 37 C

Binder | Kd [1] [nM] | koff [1] [s⁻¹] | kon [1] [M⁻¹ s⁻¹] | t½ [1] [min] | Kd [2] [nM] | koff [2] [s⁻¹] | kon [2] [M⁻¹ s⁻¹] | t½ [2] [min]
mAb13458 (antibody, V domains shown) VH: EVQLVESGGGLVQPGRSLRLSCAASGFTFDDYAMHWVRQAPGKGLEWVSGISWNSGSIGYADSVKGRFTISRDNAKNSLYLQMNSLRAEDTALYYCAKDIGITTPYWGQGTLVTVSS VL: AIQMTQSPSSLSASVGDRVTITCRASQDIRNDLGWYQQKPGKAPKLLIYSASSLQTGVPSRFSGSGSGTDFTLTISSLHPEDFATYYCLQDYWYTWTFGQGTKVEIKR | 0.064 | 7.55e-05 | 1.18e+06 | 153 | 0.0784 | 9.12e-05 | 1.16e+06 | 127
mAb14280 (antibody, V domains shown) VH: QVQLVQSGAEVKKPGASVRVSCKASGYTFTGNYIHWVRQAPGQGLEWMAWINPNSGGKNYAQKFQGRVTLTRDTSVNTAYMELSRLRSDDTAMYYCARDVNYNILTGPGGLWGQGTLVTVSS VL: QSALTQPPSASGSPGQSVTISCTGTSSDVGGYNFVSWYQQHPGKAPKLMIYEVSKRPSGVPDRFSGSKSGNTASLTVSGLQAEDEADYYCSSYAGSNNFVFGTGTKVTVLG | 0.123 | 0.00037 | 3.02e+06 | 31.2 | 0.264 | 0.000772 | 2.92e+06 | 15
mAb14256 (antibody, V domains shown) VH: QVQLQESGPGLVKPSETLSLTCTVSGGSISSHYWSWIRQPPGKGLEWIGYIYYSGSSNYNPSLKSRVTISVDTSKNQFSLKLNSVTAADTAVYYCARHYDILTGFDWFDPWGQGTLVTVSS VL: QSVLTQPPSVSGAPGQRVTISCTGSSSNIGTHYDVHWYQQLPGTAPKLLIYGNSNRPSGVPDRFSGSKSGTSASLAITGLQAEDEADYYCQSFDNSLTAPYVFGTGTKVTVLG | 0.0638 | 0.000181 | 2.84e+06 | 63.7 | 0.267 | 0.000473 | 1.78e+06 | 24.4
mAb14247 (antibody, V domains shown) VH: QITLKESGPTLVKPTQTLTLTCTFSGFSLSTSAVGVGWIRQPPGKALEWLALIYWDDDKRYSPSLKSRLTITKDTSKNQLVLTMTNVDPVDTATYYCAHHTIQLIFDYWGQGTLVTVSS VL: QSALTQPASVSGSPGQSITISCTATSSDVGNYNYVSWYQQHPGKAPKLMIYEVSNRPSGVSNRFSGSKSGNTASLTISGLQAEDEADYYCSSYTSSSTPLVFGGGTKLTVLG | 0.131 | 0.000156 | 1.19e+06 | 73.9 | 0.127 | 0.00015 | 1.18e+06 | 77
mAb14232 (antibody, V domains shown) VH: QITLKESGPTLVKPTQTLTLTCTFSGFSLSASGVGVGWIRQPPGKALEWLALIYWDDDKRYSPSLKSRLTITKDTSKNQVVLTMTNMDPVDTATYYCAQHKVATIFDYWGQGTLVTVSS VL: QSALTQPPSASGSPGQSVTISCTATSSDVGNYNYVSWYQQHPGKAPKLMIYEVTKRPSGVPDRFSGSKSGNTASLTVSGLQAEDEADYYCSSYAGSWGVFGGGTKLTVLG | 0.878 | 0.00173 | 1.97e+06 | 6.7 | 0.893 | 0.00188 | 2.1e+06 | 6.1
mAb14286 (antibody, V domains shown) VH: QVQLVQSGAEVKKPGASVKVSCKASGYTFTDYFIHWVRQAPGQGLEWMGWINPTSGGTNYAQKFRGRVTMTRDTSISTAYVELSRLRSDDTALYYCARDLPFYSDTKQFDYWGQGTLVTVSS VL: QSALTQPASVSGYPGQSITISCTGTSSDVGGYNYVSWYQQHPGKAPKLMIFDVSNRPSGVSNRFSGSKSGNTASLTFSGLQAEDEADYYCSSYTSSSTLVFGGGTKLTVLG | 0.222 | 0.000655 | 2.95e+06 | 17.6 | 0.18 | 0.000528 | 2.94e+06 | 21.9
mAb14281 (antibody, V domains shown) VH: QVQLVQSGADVKKPGASVKVSCKTSGYIFTGYYIHWVRQAPGQGLEWMGWINPNSGGTNSAQKFQGRVTMTRDTSISTVYMELSRLRSDDTAVYYCAKSNSFSVLDYNFDYWGQGTLVTVSS VL: SSELTQDPAVSVALGQTVRITCQGDSLRSYYASWYQQKPGQAPVLVIYDKNNRPSGIPDRFSGSSSGNTASLTITGAQAEDEADYYCNSRDSSRNHLVVFGGGTKLTVLG | 0.146 | 0.000213 | 1.46e+06 | 54.3 | 0.271 | 0.000365 | 1.34e+06 | 31.7
mAb14282 (antibody, V domains shown) VH: QVQLVQSGAEVKKPGASVKVSCKASGYIFTDHYMHWVRQAPGQGLEWMGWINPNSGATNYAQNFQGRVTMTRDTSIITVYMELSRLRSDDTAVYYCARDSSPYMIRYTMDVWGQGTTITVSS VL: QSALTQPASVSGSPGQSITISCTGTSSDVGSYNLVSWYQQHPGKAPKLMIYELTKRPSGVSNRFSGSKSGNTASLTISGLQAEDEADYYCSSYRGSVTDVVFGGGTKLTVLG | 0.186 | 0.000403 | 2.17e+06 | 28.7 | 0.247 | 0.000546 | 2.21e+06 | 21.1
mAb14313 (antibody, V domains shown) VH: EVQLVESGGGLVQPGRSLRLSCVASGFTFDDSAMHWVRQPPGKGLEWVSGISWNSGIIGYAESVKGRFIISRDNAKNSLFLHMRGLRPEDTAVYYCARDRLELSYYYYGMDVWGQGTTVTVSS VL: not shown | 0.0422 | 9.97e-05 | 2.36e+06 | 116 | 0.0582 | 0.000146 | 2.52e+06 | 78.9
mAb14257 (antibody, V domains shown) VH: EVQLVESGGGLVQPGGSLRLSCAASGFTVSRSYMNWVRQAPGKGLEWVSVVFTGGTTKHTDSVKGRFTISRDNSMNTLYLQMNSLRPEDTAVYYCARVAIVETTGAFDIWGQGTMVTVSS VL: QSVLTQPPSVSGAPGQRVTISCTGTSSNIGADFDVHWYQQFPGTAPKLLIYGHTNRPSGIPDRFSGSKSGTSASLAITGLQAEDEADYYCQSYDSSLSGSVVFGGGTKLTVLG | 0.0907 | 0.000254 | 2.81e+06 | 45.4 | 0.121 | 0.000339 | 2.81e+06 | 34.1
mAb14234 (antibody, V domains shown) VH: QVQLVESGGGVVQPGRSLRLSCAASGFTFSSYGIHWVRQAPGKGLEWVAIIWYDGSEKYYADSVKGRFTISRDNSKNTLFLQMNSLEAEDTAVYYCARGPDLLTGYYNYFYYGMDVWGQGTTVTVSS VL: QSVLTQPPSVSGAPGQRVTISCTGSSSNIGIGYDVHWYQQLPGTVPKLLIYGNTNRPSGVPDRFSGSKSGTSASLAITGLQAEDEADYYCQSYDSSLSSYVFGTGTKVTVLG | 0.119 | 0.000121 | 1.02e+06 | 95.2 | 0.41 | 0.000402 | 980000 | 28.8
mAb14315 (antibody, V domains shown) VH: QVQLVQSGAEVKKPGSSVKVSCKASGDTFSTYAINWVRQAPGQGLEWMGRFIHIFGTANYAQKFQGRVTITADESTSTAYMELRSLRSEDTAVYYCARDGVDYGDYRPDYWGQGTLVTVSS VL: EIVLTQSPGTLSLSPGERATLSCRASQSVSSNYLAWYQQKPGQAPRLLIYGASSRATGIPERFSGSGSGTDFTLTISRLEPEDFAVYYCQQYGSSLYTFGQGTKLEIKR | 0.0784 | 6.26e-05 | 799000 | 184 | 0.0903 | 7.91e-05 | 877000 | 146
mAb14230 (antibody, V domains shown) VH: EVQLVESGGGLIQPGRSLRLSCAASGFTFDDYAMHWVRQAPGKGLEWVSGISWNSVSIDYADSVKGRFTISRDNAKNSLYLQMTSLTVEDTALYYCAKAFGYETLTGSDYFAYWGPGTLVTVSS VL: EIVLTQSPGTLSLSPGERATLSCRASQTVISTYLAWYQQKPGQSPRLLIYGASSRATGIPDRFSGSGSGTDFTLTISRLEPEDFAVYYCQQYGSSPQLTFGGGTKVEIKR | 0.142 | 0.000286 | 2e+06 | 40.5 | 0.268 | 0.00049 | 1.82e+06 | 23.6
mAb14255 (antibody, V domains shown) VH: QVQLQESGPGLVKPSETLSLTCTVSGGSISGYYWSWIRQPPGKGLDWIGYIYYRGNTNYNPSLKSRVTISVDTSNNQFSLKLSSVTAADTAVYYCARYGEGYGDASGYHFDYWGQGTLVTVSS VL: QSALTQPASVSGSPGQSITISCTGTSSDVGSYNLVSWYQQHPGKAPKLMIYEDSKRPSGVANPFSGSKSGNTASLTISGLQAEDEADYYCSSYAGSSTWVFGGGTKLTVLG | 0.0726 | 0.000159 | 2.19e+06 | 72.6 | 0.118 | 0.00025 | 2.12e+06 | 46.2
mAb14285 (antibody, V domains shown) VH: QVQLVQSGAEVKKPGASVKVSCKASGYTFTGYFIHWVRQAPGQGLEWMGWISPISGGTNYAQKFQGRVTVTRDTSITTAYMELSRLTSDDTAVYHCAREGGTWKGDFDYWGQGTLVTVSS VL: QSALTQPASVSGSPGQSITISCTGTSSDVESYNLVSWYQQHPGKAPKLMIYEGSKRPSGVSNRFSGSKSGNTASLTISGLQAEDEADYYCSSYAGSSTWVFGGGTKLTVLG | 0.0868 | 0.000502 | 5.78e+06 | 23 | 0.231 | 0.00103 | 4.45e+06 | 11.2
mAb14292 (antibody, V domains shown) VH: EVQLVESGGGLVQPGGSLRLSCVASGFAFSTYEMNWVRQAPGKGLEWVSYISSSGSTIYYADSVKGRLTISRDNVKNSLYLQMNSLRVEDTAIYYCARDAIRNNDILTDPATFDPWGQGTLVTVSS VL: not shown | 33.6 | 0.0351 | 1.04e+06 | 0.3 | 34.6 | 0.0644 | 1.86e+06 | 0.2
